# Measured values: US20140178935A1 (AVEO PHARMACEUTICALS, published 2014)
# Changes are numbered by the printed parent chain.
# B1: anti-hHGF monoclonal antibody 1D3 (antibody, mouse IgG1, kappa, V domains shown)
# VH: EVQLVESGGGLVQPGGSLKLSCAASGFTFSDYYMSWVRQTPEKRLEWVAYISSGGGSTYYPDSVKGRFTISRDNAKNTLYLQMSSLKSEDTAIYYCVRQGDGYYGDYAMDYWGQGTSVIVSS
# VL: DIQMTQSPASLSVSVGETVTITCRTSENIYSNLAWYQQKQGKSPQLLIYAATNLADGVPSRFSGSGSGTQFSLRINSLQSEDFGRYYCQHFWGTPYTFGGGTKLEIKR
# notes: Murine IgG1 kappa from hybridoma
# B2: anti-hHGF monoclonal antibody 1F3 (antibody, mouse IgG1, kappa, V domains shown)
# VH: B1 VH with P14S, D31N, Y33F, I93M, I119T
# VL: B1 VL with T25A, I48V, A50D, N53H, A55P, R74K, R85S, K103R
# notes: as for B1
# B3: Kappa Hu2B8_Kv1-39.1 / Heavy Hu2B8_Hv5-a.1 (antibody, human IgG1, kappa, V domains shown)
# VH: EVQLVQSGAEVKKPGESLRISCKGSGYSFTTYWMHWVRQMPGKGLEWMGEINPTNGHTNYNPSFQGHVTISADKSISTAYLQWSSLKASDTAMYYCARNYVGSIFDYWGQGTLVTVSS
# VL: DIQMTQSPSSLSASVGDRVTITCKASENVVSYVSWYQQKPGKAPKLLIYGASNRNTGVPSRFSGSGSGTDFTLTISSLQPEDFATYYCGQSYNYPYTFGQGTKLEIKR
# notes: also called Hu2B8 Hv5-a.1 + IgG1 Constant heavy chain with Hu2B8 Kv1-39.1 + Kappa Constant light chain
# B4: Kappa Chimeric 2B8 / Heavy Hu2B8_Hv5-a.1 (antibody, human IgG1, kappa, V domains shown)
# VH: B3 VH
# VL: NIVMTQSPKSMSMSVGERVTLSCKASENVVSYVSWYQQKPAQSPKLLIYGASNRNTGVPDRFTGSGSATDFTLTISSVRAEDLADYHCGQSYNYPYTFGGGTRLEIKR
# notes: also called Hu2B8 Hv5-a.1 + IgG1 Constant heavy chain with Chimeric 2B8 Kappa light chain
# B5: Kappa Hu2B8_Kv1-39.1 / Heavy Chimeric 2B8 (antibody, human IgG1, kappa, V domains shown)
# VH: QVQLQQPGAELVKPGTSVKLSCKASGYTFTTYWMHWVNQRPGQGLEWIGEINPTNGHTNYNEKFKSKATLTVDKSSSTAYMQLSSLTSEDSAVYYCARNYVGSIFDYWGQGTTLTVSS
# VL: B3 VL
# notes: also called Chimeric 2B8 IgG1 heavy chain with Hu2B8 Kv1-39.1 + Kappa Constant light chain
# B6: Kappa Hu2B8_Kv1-39.1 / Heavy Hu2B8_Hv1-f.1 (antibody, human IgG1, kappa, V domains shown)
# VH: EVQLVQSGAEVKKPGATVKISCKVSGYTFTTYWMHWVQQAPGKGLEWMGEINPTNGHTNYNEKFQGRVTITADTSTDTAYMELSSLRSEDTAVYYCATNYVGSIFDYWGQGTLVTVSS
# VL: B3 VL
# notes: also called Hu2B8 Hv1-f.1 + IgG1 Constant heavy chain with Hu2B8 Kv1-39.1 + Kappa Constant light chain
# B7: Kappa Hu2B8_Kv3-15.1 / Heavy Hu2B8_Hv5-a.1 (antibody, human IgG1, kappa, V domains shown)
# VH: B3 VH
# VL: EIVMTQSPATLSVSPGERATLSCKASENVVSYVSWYQQKPGQAPRLLIYGASNRNTGIPARFSGSGSGTEFTLTISSLQSEDFAVYYCGQSYNYPYTFGQGTKLEIKR
# notes: also called Hu2B8 Hv5-a.1 + IgG1 Constant heavy chain with Hu2B8 Kv3-15.1 + Kappa Constant light chain
# B8: Kappa Hu2B8_Kv3-15.1 / Heavy Chimeric 2B8 (antibody, human IgG1, kappa, V domains shown)
# VH: B5 VH
# VL: B7 VL
# notes: also called Chimeric 2B8 IgG1 heavy chain with Hu2B8 Kv3-15.1 + Kappa Constant light chain
# B9: chimeric 2B8 (mouse variable regions with human IgG1 (G1m(17,1)) and Kappa (Km(3)) constant regions) (antibody)
# heavy: not shown
# light: NIVMTQSPKSMSMSVGERVTLSCKASENVVSYVSWYQQKPAQSPKLLIYGASNRNTGVPDRFTGSGSATDFTLTISSVRAEDLADYHCGQSYNYPYTFGGGTRLEIKRTVAAPSVFIFPPSDEQLKSGTASVVCLLNNFYPREAKVQWKVDNALQSGNSQESVTEQDSKDSTYSLSSTLTLSKADYEKHKVYACEVTHQGLSSPVTKSFNRGEC
# notes: also called Chimeric 2B8 IgG1; Chimeric 2B8 Kappa (Km(3))
# B10: Kappa Chimeric 2B8 / Heavy Hu2B8_Hv1-f.1 (antibody, human IgG1, kappa, V domains shown)
# VH: B6 VH
# VL: B4 VL
# notes: also called Hu2B8 Hv1-f.1 + IgG1 Constant heavy chain with Chimeric 2B8 Kappa light chain
# B11: Kappa Hu2B8_Kv3-15.1 / Heavy Hu2B8_Hv1-f.1 (antibody, human IgG1, kappa, V domains shown)
# VH: B6 VH
# VL: B7 VL
# notes: also called Hu2B8 Hv1-f.1 + IgG1 Constant heavy chain with Hu2B8 Kv3-15.1 + Kappa Constant light chain
# Biological target: T1, recombinant human HGF (R&D Systems, Catalog No. 294-HGN-025) (human, UniProt P14210 32-728)
# Experiment: cell-based or functional assay
# T1 sequence (P14210 32-728 limits assumed): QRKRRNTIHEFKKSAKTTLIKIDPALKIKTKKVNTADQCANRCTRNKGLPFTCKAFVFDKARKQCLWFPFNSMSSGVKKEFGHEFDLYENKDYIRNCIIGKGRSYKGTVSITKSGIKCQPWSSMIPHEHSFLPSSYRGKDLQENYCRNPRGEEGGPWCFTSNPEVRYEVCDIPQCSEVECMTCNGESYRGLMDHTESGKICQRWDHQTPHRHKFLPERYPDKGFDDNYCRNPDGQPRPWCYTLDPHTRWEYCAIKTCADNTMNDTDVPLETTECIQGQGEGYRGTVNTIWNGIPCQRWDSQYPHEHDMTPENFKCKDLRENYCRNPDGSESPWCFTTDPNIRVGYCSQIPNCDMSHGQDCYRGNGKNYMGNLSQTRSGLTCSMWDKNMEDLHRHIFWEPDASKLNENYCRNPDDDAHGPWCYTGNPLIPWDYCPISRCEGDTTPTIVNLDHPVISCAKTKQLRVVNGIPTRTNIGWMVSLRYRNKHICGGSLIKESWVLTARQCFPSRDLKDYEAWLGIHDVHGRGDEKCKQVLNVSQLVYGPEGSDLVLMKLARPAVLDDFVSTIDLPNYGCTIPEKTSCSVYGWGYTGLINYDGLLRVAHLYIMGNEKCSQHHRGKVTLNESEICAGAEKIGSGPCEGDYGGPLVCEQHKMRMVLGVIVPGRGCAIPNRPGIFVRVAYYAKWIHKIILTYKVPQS
row,Binder,"IC50, neutralization of HGF stimulated BrdU incorporation in 4 MBr-5 cells [nM]"
1,B1,4.99
2,B2,1.94

# Biological target: T1, recombinant human HGF (R&D Systems, …)
# Experiment: cell-based or functional assay
# Remark: another data set of the same source
row,Binder,"EC50, inhibition of HGF-stimulated c-Met phosphorylation in PC-3 cells, Average of Two Trials [nM]"
1,B1,0.984
2,B2,1.19

# Biological target: T2, recombinant mouse HGF (R&D Systems) (mouse, UniProt Q08048 33-728)
# T2 construct: Bought protein, construct not described; also called rmHGF (R&D Systems); murine HGF
# Experiment: SPR, antibody immobilized, HGF protein injected, 25 C
# Protocol: (§1) Each antibody was immobilized on a carboxymethylated dextran CM5 sensor chip (BIAcore, Catalog No. BR-1006-68) by amine coupling (BIAcore, Catalog No. BR-1000-50) using a standard coupling protocol according to manufacturer's instructions.
# (§2) Analyses were performed at 25° C. using PBS (GIBCO, Catalog No. 14040-133) containing 0.05% surfactant P20 (BIAcore, Catalog No. R-1000-54), 2 mg/mL BSA (EMD, Catalog No. 2930) and 10 mg/mL CM-Dextran Sodium salt (Fluka, Catalog No. 86524) as running buffer. […] The resulting binding was determined as resonance units (RU) over baseline 30 seconds after the end of injection. […] Non-specific binding was monitored by comparing binding to a control surface where mouse IgG (Rockland, Catalog No. 010-0102) was immobilized using the same amine coupling procedure.
# T2 sequence (Q08048 33-728 limits assumed): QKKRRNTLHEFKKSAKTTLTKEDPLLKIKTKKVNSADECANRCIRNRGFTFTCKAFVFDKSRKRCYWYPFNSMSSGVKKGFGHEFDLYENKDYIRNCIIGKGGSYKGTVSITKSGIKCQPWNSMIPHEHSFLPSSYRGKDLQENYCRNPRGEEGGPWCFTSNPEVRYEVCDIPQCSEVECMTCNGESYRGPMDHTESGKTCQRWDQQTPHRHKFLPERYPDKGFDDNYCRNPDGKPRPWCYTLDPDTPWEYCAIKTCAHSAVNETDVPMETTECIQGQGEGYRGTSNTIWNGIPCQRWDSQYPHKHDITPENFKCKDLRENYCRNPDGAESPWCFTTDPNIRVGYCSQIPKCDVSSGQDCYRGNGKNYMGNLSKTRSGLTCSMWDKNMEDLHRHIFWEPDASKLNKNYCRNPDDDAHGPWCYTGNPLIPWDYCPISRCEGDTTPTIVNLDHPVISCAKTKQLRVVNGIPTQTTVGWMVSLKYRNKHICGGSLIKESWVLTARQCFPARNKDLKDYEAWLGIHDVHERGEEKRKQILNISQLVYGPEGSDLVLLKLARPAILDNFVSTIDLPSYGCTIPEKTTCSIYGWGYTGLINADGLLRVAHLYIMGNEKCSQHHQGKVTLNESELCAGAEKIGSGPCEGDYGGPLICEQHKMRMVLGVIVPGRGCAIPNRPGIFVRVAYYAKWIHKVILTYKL
row,Binder,binding result
1,B1,no binding
2,B2,binds

# Biological target: hHGF-Fc G555E (recombinant hHGF protein containing a glycine to glutamate substitution at position 555) (human)
# Experiment: as above
# Protocol: as §1, §2
# hHGF-Fc G555E (recombinant hHGF protein containing a glycine to glutamate substitution at position 555) (human), sequence (chain, as listed by the source G555E G555E limits assumed): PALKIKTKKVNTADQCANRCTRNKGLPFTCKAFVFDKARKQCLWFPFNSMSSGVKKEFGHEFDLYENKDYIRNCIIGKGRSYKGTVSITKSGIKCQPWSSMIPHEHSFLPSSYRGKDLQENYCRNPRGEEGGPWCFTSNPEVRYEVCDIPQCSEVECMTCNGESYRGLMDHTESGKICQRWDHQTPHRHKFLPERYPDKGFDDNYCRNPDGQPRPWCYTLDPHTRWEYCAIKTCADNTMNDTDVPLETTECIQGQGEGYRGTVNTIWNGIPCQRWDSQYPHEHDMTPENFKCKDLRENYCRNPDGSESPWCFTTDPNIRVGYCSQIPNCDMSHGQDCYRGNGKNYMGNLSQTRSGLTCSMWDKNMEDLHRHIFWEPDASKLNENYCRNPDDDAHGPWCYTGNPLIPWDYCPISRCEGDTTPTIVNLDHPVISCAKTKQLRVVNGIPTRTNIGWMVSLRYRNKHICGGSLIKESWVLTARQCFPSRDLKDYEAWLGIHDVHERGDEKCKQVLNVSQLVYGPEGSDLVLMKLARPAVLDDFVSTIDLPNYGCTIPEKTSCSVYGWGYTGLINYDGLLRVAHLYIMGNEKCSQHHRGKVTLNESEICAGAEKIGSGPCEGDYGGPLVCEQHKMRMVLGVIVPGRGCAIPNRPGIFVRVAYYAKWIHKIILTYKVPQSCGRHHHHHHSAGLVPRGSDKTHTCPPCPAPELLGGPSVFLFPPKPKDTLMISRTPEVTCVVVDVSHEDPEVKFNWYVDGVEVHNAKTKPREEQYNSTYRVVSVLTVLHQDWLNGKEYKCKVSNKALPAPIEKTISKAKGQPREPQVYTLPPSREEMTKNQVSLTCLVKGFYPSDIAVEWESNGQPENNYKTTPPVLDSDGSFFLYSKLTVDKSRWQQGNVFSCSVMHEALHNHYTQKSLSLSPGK
row,Binder,binding result
1,B1,binds
2,B2,binds

# Biological target: hHGF-Fc C561R (recombinant hHGF protein containing a cysteine to arginine substitution at position 561) (human)
# Experiment: as above
# Protocol: as §1, §2
# hHGF-Fc C561R (recombinant hHGF protein containing a cysteine to arginine substitution at position 561) (human), sequence (chain, as listed by the source C561R C561R limits assumed): as the sequence (chain, as listed by the source G555E G555E limits assumed) above, with E501G, C507R counted along it
row,Binder,binding result
1,B1,binds
2,B2,binds

# Biological target: T1, recombinant human HGF (R&D Systems, …)
# Experiment: SPR, antibody captured by anti-mouse Ig, HGF injected, 25 C
# Protocol: (§3) Rabbit anti-mouse immunoglobulins (BIAcore, Catalog No. BR-1005-14) were immobilized on carboxymethylated dextran CM5 sensor chips (BIAcore, Catalog No. BR-1006-68) by amine coupling (BIAcore, Catalog No. BR-1000-50) using a standard coupling protocol according to manufacturer's instructions. The analyses were performed at 25° C. using PBS (GIBCO, Catalog No. 14040-133) containing 0.05% surfactant P20 (BIAcore, Catalog No. BR-1000-54), 2 mg/mL BSA (EMD, Catalog No. 2930), and 10 mg/mL CM-Dextran Sodium salt (Fluka, Catalog No. 86524) as running buffer.
# (§4) The antibodies were captured in an individual flow cell at a flow rate of 10 μL/min. Injection time was variable for each antibody to yield approximately 20 RU of antibody captured for each cycle. […] The dissociation phase was monitored for 15 or 90 minutes, depending on concentration. The surface then was regenerated with 10 mM Glycine-HCl, pH 1.7 (BIAcore, Catalog No. BR-1003-54) injected for 3 minutes at a flow rate of 60 μL/min before another cycle was initiated.
# Kinetic parameters were determined using the kinetic function of the BIAevalutation software with reference subtraction.
Binder,Kd [nM],koff [s⁻¹],kon [M⁻¹ s⁻¹]
B1,0.0542,8.2e-05,1.7e+06
B2,0.0181,2.6e-05,1.5e+06

# Biological target: T1, recombinant human HGF (R&D Systems, …)
# Experiment: competition ELISA (DELFIA): antibody inhibits c-Met binding to plate-coated HGF
# Protocol: The plates then were blocked with 200 μL of 5% non-fat dry milk in PBS for 1 hour at room temperature. […] 100 μL of sample per well was transferred to the assay plate and incubated overnight at 4° C.
# The resulting plates then were washed three times with PBS-0.1% Tween 20, and incubated for 1 hour at room temperature with Eu-labeled Streptavidin (Wallac, Catalog No. 1244-360) diluted 1:1000 in DELFIA assay buffer (Wallac, Catalog No. 4002-0010). The resulting plates were washed 3 times with DELFIA wash solution (Wallac, Catalog No. 4010-0010) and incubated with 100 μL/well DELFIA enhancement solution (Wallac #4001-0010) for 15 minutes at room temperature with agitation.
# The plates were read on Victor³V instrument (Perkin Elmer) using the Europium method.
row,Binder,IC50 [nM]
1,B1,4.43
2,B2,6.57

# Biological target: T1, recombinant human HGF (R&D Systems, …)
# Experiment: SPR (BIAcore T100), antibody captured on mouse anti-human immunoglobulin CM4 chip, HGF 1.88, 3.75 and 7.5 nM injected, 25 C
# Protocol: as §3, with “Antigen-binding affinity and kinetics of interaction were assessed by surface plasmon resonance technology using a BIAcore T100 instrument. Mouse anti-human” for “Rabbit anti-mouse”, “(Jackson ImmunoResearch Labs, 209-005-098)” for “(BIAcore, Catalog No. BR-1005-14)”, “CM4” for “CM5”, “BR-1005-34)” for “BR-1006-68)”, “recommendations.” for “instructions.”, “2930)” for “2930),”
# as §4, with “on” for “in an”, “2.0” for “1.7”, “BR-1003-55)” for “BR-1003-54)”, “initiated. […] Determination of kinetic parameters was achieved using the kinetic function of the BIAevalutation software with reference subtraction.” for “initiated.”
Binder,koff [s⁻¹],kon [M⁻¹ s⁻¹]
B3,3.8e-05,2.6e+06
B4,1.1e-05,2.4e+06
B5,3.9e-05,2.8e+06
B6,0.0021,7.1e+06
B7,5.9e-05,2.2e+06
B8,1.7e-05,3.1e+06
B9,2.7e-05,2.3e+06
B10,0.0016,2.4e+06
B11,0.0037,7.8e+06
